Reference: US20120045819A1 (published 2012)
Positions of bridges follow the written chain, without caps; N, C: chain ends. No end group written: not given here. *: point of attachment. NHNH2 = NN*

T1: native human factor VIII (nhfVIII) (human, UniProt P00451 20-2351)
T1 chain 1: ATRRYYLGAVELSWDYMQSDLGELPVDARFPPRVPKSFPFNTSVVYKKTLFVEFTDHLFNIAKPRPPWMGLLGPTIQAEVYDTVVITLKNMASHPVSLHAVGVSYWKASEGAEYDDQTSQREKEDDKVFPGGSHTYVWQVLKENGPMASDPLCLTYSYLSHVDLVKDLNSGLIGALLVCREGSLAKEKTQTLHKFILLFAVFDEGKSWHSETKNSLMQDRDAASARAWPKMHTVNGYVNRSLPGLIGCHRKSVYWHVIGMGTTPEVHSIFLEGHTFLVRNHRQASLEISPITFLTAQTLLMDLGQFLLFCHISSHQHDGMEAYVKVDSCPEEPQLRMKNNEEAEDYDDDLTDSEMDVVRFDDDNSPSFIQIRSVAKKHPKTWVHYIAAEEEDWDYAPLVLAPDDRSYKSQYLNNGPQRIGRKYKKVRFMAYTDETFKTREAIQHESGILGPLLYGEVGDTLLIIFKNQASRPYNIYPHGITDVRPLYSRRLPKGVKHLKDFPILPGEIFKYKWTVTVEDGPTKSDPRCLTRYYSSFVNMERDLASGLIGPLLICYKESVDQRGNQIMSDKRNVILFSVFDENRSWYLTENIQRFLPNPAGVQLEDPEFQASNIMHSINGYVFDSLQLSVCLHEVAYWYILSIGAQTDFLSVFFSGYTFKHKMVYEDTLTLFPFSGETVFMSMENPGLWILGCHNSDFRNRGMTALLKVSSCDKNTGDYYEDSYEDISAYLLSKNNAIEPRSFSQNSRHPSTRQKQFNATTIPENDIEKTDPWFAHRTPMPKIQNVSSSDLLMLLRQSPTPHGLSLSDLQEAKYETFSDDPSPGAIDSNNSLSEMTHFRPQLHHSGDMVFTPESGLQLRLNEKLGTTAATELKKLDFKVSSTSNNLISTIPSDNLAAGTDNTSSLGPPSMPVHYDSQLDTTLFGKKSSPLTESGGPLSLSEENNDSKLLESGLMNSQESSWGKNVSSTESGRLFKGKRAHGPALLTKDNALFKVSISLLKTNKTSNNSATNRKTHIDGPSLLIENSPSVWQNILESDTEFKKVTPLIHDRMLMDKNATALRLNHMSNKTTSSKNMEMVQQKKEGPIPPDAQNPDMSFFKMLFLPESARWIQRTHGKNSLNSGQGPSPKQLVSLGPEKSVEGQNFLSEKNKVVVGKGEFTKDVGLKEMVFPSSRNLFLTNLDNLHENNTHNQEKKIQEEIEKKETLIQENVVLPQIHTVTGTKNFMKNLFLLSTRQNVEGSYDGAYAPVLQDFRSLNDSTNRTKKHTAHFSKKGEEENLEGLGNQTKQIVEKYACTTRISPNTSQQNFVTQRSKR
T1 chain 2: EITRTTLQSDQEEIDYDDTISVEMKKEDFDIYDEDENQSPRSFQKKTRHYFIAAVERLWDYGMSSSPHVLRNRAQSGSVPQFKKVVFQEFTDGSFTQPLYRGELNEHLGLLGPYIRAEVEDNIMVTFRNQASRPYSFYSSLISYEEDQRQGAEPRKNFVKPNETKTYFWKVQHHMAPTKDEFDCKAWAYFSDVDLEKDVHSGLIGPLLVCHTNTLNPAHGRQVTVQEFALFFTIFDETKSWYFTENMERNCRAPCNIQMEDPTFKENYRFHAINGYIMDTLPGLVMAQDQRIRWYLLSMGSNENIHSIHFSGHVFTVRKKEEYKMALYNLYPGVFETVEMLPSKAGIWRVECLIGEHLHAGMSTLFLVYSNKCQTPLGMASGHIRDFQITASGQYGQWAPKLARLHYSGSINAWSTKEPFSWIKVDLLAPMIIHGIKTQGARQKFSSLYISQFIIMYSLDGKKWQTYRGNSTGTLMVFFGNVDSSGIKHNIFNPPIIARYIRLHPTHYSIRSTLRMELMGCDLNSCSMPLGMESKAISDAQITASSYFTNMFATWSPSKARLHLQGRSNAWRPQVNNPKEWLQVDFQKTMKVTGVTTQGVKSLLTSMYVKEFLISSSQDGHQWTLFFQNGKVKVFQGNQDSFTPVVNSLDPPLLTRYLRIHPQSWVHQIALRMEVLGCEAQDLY

B1: CS-458 (AEGTGDFCWVFAFDHCHDPGPEGGGS-NHNH2) (peptide)
peptide: AEGTGDFCWVFAFDHCHDPGPEGGGS-NHNH2
modifications: disulfide 8-16
notes: synthetic peptide immobilized on Toyopearl Formyl 650-M resin by hydrazone bond
B2: CS-456 (AEGTGDFGCSWLFPCPFDPGPEGGGS-NHNH2) (peptide)
peptide: AEGTGDFGCSWLFPCPFDPGPEGGGS-NHNH2
modifications: disulfide 9-15
notes: as for B1
B3: CS-454 (AEGTGDHLCGAWFRPCDADPGPEGGGS-NHNH2) (peptide)
peptide: AEGTGDHLCGAWFRPCDADPGPEGGGS-NHNH2
modifications: disulfide 9-16
notes: as for B1

Target: T1, native human factor VIII (nhfVIII)
Test: batch binding to peptide beads; fractions by sandwich ELISA; % of total recovered

Compared with B1, B2 is lower in “% of total recovered in Eluate” value: 39% for the first, 16% for the second.

With B3 the “% of total recovered in Eluate” value was 21%.

Compared with B1, B2 is higher in “% of total recovered in Unbound” value: 48% for the first, 70% for the second.

B3 was tested, and the “% of total recovered in Unbound” value was 67%.

Going from B1 to B2, the “% of total recovered in Wash” value rises from 13% to 14%.

In the case of B3, the “% of total recovered in Wash” value is reported as 12%.
